# US20220306751A1 (MYTHIC THERAPEUTICS, published 2022)
# T1: CD123 Protein, His Tag, Acro Biosciences Cat. No. ILA-H52H6 (Homo sapiens (Human), UniProt P26951 19-305)
# T1 construct: Bought protein; not shown: His tag
# T1 sequence: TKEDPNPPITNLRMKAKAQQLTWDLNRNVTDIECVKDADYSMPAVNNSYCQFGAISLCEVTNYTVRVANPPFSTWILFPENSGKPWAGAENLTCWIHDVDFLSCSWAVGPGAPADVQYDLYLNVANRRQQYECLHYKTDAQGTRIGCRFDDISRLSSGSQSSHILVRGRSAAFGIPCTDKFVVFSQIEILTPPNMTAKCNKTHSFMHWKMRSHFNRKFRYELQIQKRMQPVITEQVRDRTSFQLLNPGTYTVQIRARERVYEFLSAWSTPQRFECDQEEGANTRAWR
# Target: T1, CD123 Protein, His Tag, Acro …
# Test: BLI, IgG on anti-human Fc sensor, 50 nM CD123, pH 7.4 and pH 5.4
# Description: We selected IMGN632 (Heavy chain SEQ ID NO: 1, Light chain SEQ ID NO: 2) as a CD123-binding monoclonal antibody for pH engineering via histidine scanning. Briefly, CDRs in the heavy chain were identified using the methods described by Kabat et al (Kabat et al. (1992) Sequences of Proteins of Immunological Interest, DIANE publishing) and IMGT (Lefranc M P (1999) “The IMGT unique numbering for Immunoglobulins, T cell receptors and Ig-like domains” The Immunologist 7, 132-136), and for each CDR, residues falling under either or both Kabat and IMGT CDR definitions were called as CDR residues. To generate pH-dependent sequence variants, individual amino acid residues within the heavy chain CDRs were systematically substituted with a histidine, one at a time (MYT1252-MYT1292). In cases where the starting CDR residue was a histidine, it was mutated to an alanine. Antibody variants with only one histidine or alanine mutation in a heavy chain CDR were generated by co-transfection of Expi293 cells with a) one heavy chain sequence variant, and b) the corresponding starting ABPC light chain using methods known to the art. After allowing for four days of protein expression, cell culture supernatants were collected, quantified by SDS-PAGE analysis (FIG. 1), and the pH dependence of the variant was evaluated using biolayer interferometry (BLI) on an Octet RED 384 instrument. For constructs MYT1252, MYT1254-MYT1287, and MYT1289-1292, 104, of cell culture supernatant was diluted into 1904, of 1× PBST pH 7.4. For MYT1253 and MYT1288 254, and 504, of cell culture supernatant was diluted into 1754, and 1504, respectively. […] The resulting diluted supernatants were then captured on an anti-human Fc sensor (Forte Bio). A baseline was established using 1× PBST (50 mM Potassium Phosphate Buffer+150 mM NaCl+0.05% Tween 20) pH 7.4, and the sensor was associated with 50 nM of CD123 (CD123 Protein, His Tag, Acro Biosciences Cat. No. ILA-H52H6, Lot No. 1741d-89CF1-KB) in 1×PBST pH 7.4 for 120 sec to generate an association curve. In the dissociation phase, the antibody-antigen complex on the sensor was exposed to 1× PBST pH 7.4 for 300-600 sec. Baseline, association, and dissociation were repeated using 1×PBST pH 5.4 throughout in a separate condition.
row,binding result,Binder
1,binds,"MYT1253 (antibody, V domains shown, IgG) VH: QVQLVQSGAEVKKPGASVKVSCKASGHIFTSSIMHWVRQAPGQGLEWIGYIKPYNDGTKYNEKFKGRATLTSDRSTSTAYMELSSLRSEDTAVYYCAREGGNDYYDTMDYWGQGTLVTVSS VL: DIQMTQSPSSLSASVGDRVTITCRASQDINSYLSWFQQKPGKAPKTLIYRVNRLVDGVPSRFSGSGSGNDYTLTISSLQPEDFATYYCLQYDAFPYTFGQGTKVEIK"
2,binds,"MYT1258 (antibody, V domains shown, IgG) VH: QVQLVQSGAEVKKPGASVKVSCKASGYIFTSHIMHWVRQAPGQGLEWIGYIKPYNDGTKYNEKFKGRATLTSDRSTSTAYMELSSLRSEDTAVYYCAREGGNDYYDTMDYWGQGTLVTVSS VL: DIQMTQSPSSLSASVGDRVTITCRASQDINSYLSWFQQKPGKAPKTLIYRVNRLVDGVPSRFSGSGSGNDYTLTISSLQPEDFATYYCLQYDAFPYTFGQGTKVEIK"
3,binds,"MYT1259 (antibody, V domains shown, IgG) VH: QVQLVQSGAEVKKPGASVKVSCKASGYIFTSSHMHWVRQAPGQGLEWIGYIKPYNDGTKYNEKFKGRATLTSDRSTSTAYMELSSLRSEDTAVYYCAREGGNDYYDTMDYWGQGTLVTVSS VL: DIQMTQSPSSLSASVGDRVTITCRASQDINSYLSWFQQKPGKAPKTLIYRVNRLVDGVPSRFSGSGSGNDYTLTISSLQPEDFATYYCLQYDAFPYTFGQGTKVEIK"
4,binds,"MYT1256 (antibody, V domains shown, IgG) VH: QVQLVQSGAEVKKPGASVKVSCKASGYIFHSSIMHWVRQAPGQGLEWIGYIKPYNDGTKYNEKFKGRATLTSDRSTSTAYMELSSLRSEDTAVYYCAREGGNDYYDTMDYWGQGTLVTVSS VL: DIQMTQSPSSLSASVGDRVTITCRASQDINSYLSWFQQKPGKAPKTLIYRVNRLVDGVPSRFSGSGSGNDYTLTISSLQPEDFATYYCLQYDAFPYTFGQGTKVEIK"
5,binds,"MYT1268 (antibody, V domains shown, IgG) VH: QVQLVQSGAEVKKPGASVKVSCKASGYIFTSSIMHWVRQAPGQGLEWIGYIKPYNHGTKYNEKFKGRATLTSDRSTSTAYMELSSLRSEDTAVYYCAREGGNDYYDTMDYWGQGTLVTVSS VL: DIQMTQSPSSLSASVGDRVTITCRASQDINSYLSWFQQKPGKAPKTLIYRVNRLVDGVPSRFSGSGSGNDYTLTISSLQPEDFATYYCLQYDAFPYTFGQGTKVEIK"
6,binds,"MYT1265 (antibody, V domains shown, IgG) VH: QVQLVQSGAEVKKPGASVKVSCKASGYIFTSSIMHWVRQAPGQGLEWIGYIKHYNDGTKYNEKFKGRATLTSDRSTSTAYMELSSLRSEDTAVYYCAREGGNDYYDTMDYWGQGTLVTVSS VL: DIQMTQSPSSLSASVGDRVTITCRASQDINSYLSWFQQKPGKAPKTLIYRVNRLVDGVPSRFSGSGSGNDYTLTISSLQPEDFATYYCLQYDAFPYTFGQGTKVEIK"
7,binds,"MYT1266 (antibody, V domains shown, IgG) VH: QVQLVQSGAEVKKPGASVKVSCKASGYIFTSSIMHWVRQAPGQGLEWIGYIKPHNDGTKYNEKFKGRATLTSDRSTSTAYMELSSLRSEDTAVYYCAREGGNDYYDTMDYWGQGTLVTVSS VL: DIQMTQSPSSLSASVGDRVTITCRASQDINSYLSWFQQKPGKAPKTLIYRVNRLVDGVPSRFSGSGSGNDYTLTISSLQPEDFATYYCLQYDAFPYTFGQGTKVEIK"
8,binds,"MYT1267 (antibody, V domains shown, IgG) VH: QVQLVQSGAEVKKPGASVKVSCKASGYIFTSSIMHWVRQAPGQGLEWIGYIKPYHDGTKYNEKFKGRATLTSDRSTSTAYMELSSLRSEDTAVYYCAREGGNDYYDTMDYWGQGTLVTVSS VL: DIQMTQSPSSLSASVGDRVTITCRASQDINSYLSWFQQKPGKAPKTLIYRVNRLVDGVPSRFSGSGSGNDYTLTISSLQPEDFATYYCLQYDAFPYTFGQGTKVEIK"
9,binds,"MYT1262 (antibody, V domains shown, IgG) VH: QVQLVQSGAEVKKPGASVKVSCKASGYIFTSSIMHWVRQAPGQGLEWIGHIKPYNDGTKYNEKFKGRATLTSDRSTSTAYMELSSLRSEDTAVYYCAREGGNDYYDTMDYWGQGTLVTVSS VL: DIQMTQSPSSLSASVGDRVTITCRASQDINSYLSWFQQKPGKAPKTLIYRVNRLVDGVPSRFSGSGSGNDYTLTISSLQPEDFATYYCLQYDAFPYTFGQGTKVEIK"
10,binds,"MYT1263 (antibody, V domains shown, IgG) VH: QVQLVQSGAEVKKPGASVKVSCKASGYIFTSSIMHWVRQAPGQGLEWIGYHKPYNDGTKYNEKFKGRATLTSDRSTSTAYMELSSLRSEDTAVYYCAREGGNDYYDTMDYWGQGTLVTVSS VL: DIQMTQSPSSLSASVGDRVTITCRASQDINSYLSWFQQKPGKAPKTLIYRVNRLVDGVPSRFSGSGSGNDYTLTISSLQPEDFATYYCLQYDAFPYTFGQGTKVEIK"
11,binds,"MYT1254 (antibody, V domains shown, IgG) VH: QVQLVQSGAEVKKPGASVKVSCKASGYHFTSSIMHWVRQAPGQGLEWIGYIKPYNDGTKYNEKFKGRATLTSDRSTSTAYMELSSLRSEDTAVYYCAREGGNDYYDTMDYWGQGTLVTVSS VL: DIQMTQSPSSLSASVGDRVTITCRASQDINSYLSWFQQKPGKAPKTLIYRVNRLVDGVPSRFSGSGSGNDYTLTISSLQPEDFATYYCLQYDAFPYTFGQGTKVEIK"
12,binds,"MYT1252 (antibody, V domains shown, IgG) VH: QVQLVQSGAEVKKPGASVKVSCKASHYIFTSSIMHWVRQAPGQGLEWIGYIKPYNDGTKYNEKFKGRATLTSDRSTSTAYMELSSLRSEDTAVYYCAREGGNDYYDTMDYWGQGTLVTVSS VL: DIQMTQSPSSLSASVGDRVTITCRASQDINSYLSWFQQKPGKAPKTLIYRVNRLVDGVPSRFSGSGSGNDYTLTISSLQPEDFATYYCLQYDAFPYTFGQGTKVEIK"
13,binds,"MYT1260 (antibody, V domains shown, IgG) VH: QVQLVQSGAEVKKPGASVKVSCKASGYIFTSSIHHWVRQAPGQGLEWIGYIKPYNDGTKYNEKFKGRATLTSDRSTSTAYMELSSLRSEDTAVYYCAREGGNDYYDTMDYWGQGTLVTVSS VL: DIQMTQSPSSLSASVGDRVTITCRASQDINSYLSWFQQKPGKAPKTLIYRVNRLVDGVPSRFSGSGSGNDYTLTISSLQPEDFATYYCLQYDAFPYTFGQGTKVEIK"
14,binds,"MYT1255 (antibody, V domains shown, IgG) VH: QVQLVQSGAEVKKPGASVKVSCKASGYIHTSSIMHWVRQAPGQGLEWIGYIKPYNDGTKYNEKFKGRATLTSDRSTSTAYMELSSLRSEDTAVYYCAREGGNDYYDTMDYWGQGTLVTVSS VL: DIQMTQSPSSLSASVGDRVTITCRASQDINSYLSWFQQKPGKAPKTLIYRVNRLVDGVPSRFSGSGSGNDYTLTISSLQPEDFATYYCLQYDAFPYTFGQGTKVEIK"
15,binds,"MYT1269 (antibody, V domains shown, IgG) VH: QVQLVQSGAEVKKPGASVKVSCKASGYIFTSSIMHWVRQAPGQGLEWIGYIKPYNDHTKYNEKFKGRATLTSDRSTSTAYMELSSLRSEDTAVYYCAREGGNDYYDTMDYWGQGTLVTVSS VL: DIQMTQSPSSLSASVGDRVTITCRASQDINSYLSWFQQKPGKAPKTLIYRVNRLVDGVPSRFSGSGSGNDYTLTISSLQPEDFATYYCLQYDAFPYTFGQGTKVEIK"
16,binds,"MYT1261 (antibody, V domains shown, IgG) VH: QVQLVQSGAEVKKPGASVKVSCKASGYIFTSSIMAWVRQAPGQGLEWIGYIKPYNDGTKYNEKFKGRATLTSDRSTSTAYMELSSLRSEDTAVYYCAREGGNDYYDTMDYWGQGTLVTVSS VL: DIQMTQSPSSLSASVGDRVTITCRASQDINSYLSWFQQKPGKAPKTLIYRVNRLVDGVPSRFSGSGSGNDYTLTISSLQPEDFATYYCLQYDAFPYTFGQGTKVEIK"
17,binds,"MYT1257 (antibody, V domains shown, IgG) VH: QVQLVQSGAEVKKPGASVKVSCKASGYIFTHSIMHWVRQAPGQGLEWIGYIKPYNDGTKYNEKFKGRATLTSDRSTSTAYMELSSLRSEDTAVYYCAREGGNDYYDTMDYWGQGTLVTVSS VL: DIQMTQSPSSLSASVGDRVTITCRASQDINSYLSWFQQKPGKAPKTLIYRVNRLVDGVPSRFSGSGSGNDYTLTISSLQPEDFATYYCLQYDAFPYTFGQGTKVEIK"
